Experimental findings from patent US6084068, “Elongin A and C functional domains” (Oklahoma Medical Research Foundation, dated 2000) are described below.

In the experiment the target is T1, Elongin BC complex (wild type rat Elongin B and C) (rat, UniProt P62870).
T1 chain 1: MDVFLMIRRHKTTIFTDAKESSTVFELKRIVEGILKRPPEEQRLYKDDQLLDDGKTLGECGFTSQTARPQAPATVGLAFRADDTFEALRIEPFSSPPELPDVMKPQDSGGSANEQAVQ
T1 chain 2: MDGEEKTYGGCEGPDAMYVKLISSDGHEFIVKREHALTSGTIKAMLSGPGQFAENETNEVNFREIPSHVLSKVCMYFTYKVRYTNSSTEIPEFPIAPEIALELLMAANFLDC
As to the kind of experiment: refolded with wild type Elongin B and C; TSK SP-NPR HPLC, SDS-PAGE, silver staining.

B1: Elongin A internal deletion mutant Δ566-585 (other)
chain: MAAESALQVVEKLQARLAANPDPKKLLKYLKKLSVLPITVDILVETGVGKTVNSFRKHEQVGNFARDLVAQWKKLVPVERNNEAEDQDFEKSNSRKRPRDVPQQEEEAEGNYQESWQASGSQPYSPEHRQKKHRKLPELERPHKVAHGHERRDERKRCHKVSPPYSSDPESSDYGHVQSPPPSSPHQMYTDLSRSPEMDQEPIVSHPKPGKVHSNTFQDRLGVSHLGEHQGKGAVSQNKPHKSSHKEKRPVDARGDEKSSVMGREKSHKASSKEESRRLLSEDSAKEKLPSSVVKKEKDREGNSLKKKLSPALDVASDNHFKKPKHKDSEKIKSDKNKQSVDSVDSGRGTGDPLPRAKDKVPNNLKAQEGKVRTNSDRKSPGSLPKVEEMDMDDEFEQPTMSFESYLSYDQPRKKKKKVVKTSGTALGEKGLKKKDSKSTSKNLNSAQKLPKANENKSDKLQPAGAEPTRPRKVPTDVLPALPDIPLPAIQTNYRPLPSLELISSFQPKRKAFSSPQEEEEAGFTGRRMNSKMQVYSGSKCAYLPKMMTLHQQCIRVLKNNIDSIDQLYRIEECNHVLIEETDQLWKVHCHRDFKEERPEEYESWREMYLRLQDAREQRLRLLTNNIRSAHANKPKGRQAKMAFVNSVAKPPRDVRRRQEKFGTGGAAVPEKVRIKPAPYTTGSSHVPASNSSSSFHSSPEELAYEGPSTSSAHLAPVASSSVSYDPRKPAVKKIAPMMAKTIKAFKNRFSRR
With B1, the binding result was “binds”.

B2: Elongin A internal deletion mutant Δ611-650 (other)
chain: MAAESALQVVEKLQARLAANPDPKKLLKYLKKLSVLPITVDILVETGVGKTVNSFRKHEQVGNFARDLVAQWKKLVPVERNNEAEDQDFEKSNSRKRPRDVPQQEEEAEGNYQESWQASGSQPYSPEHRQKKHRKLPELERPHKVAHGHERRDERKRCHKVSPPYSSDPESSDYGHVQSPPPSSPHQMYTDLSRSPEMDQEPIVSHPKPGKVHSNTFQDRLGVSHLGEHQGKGAVSQNKPHKSSHKEKRPVDARGDEKSSVMGREKSHKASSKEESRRLLSEDSAKEKLPSSVVKKEKDREGNSLKKKLSPALDVASDNHFKKPKHKDSEKIKSDKNKQSVDSVDSGRGTGDPLPRAKDKVPNNLKAQEGKVRTNSDRKSPGSLPKVEEMDMDDEFEQPTMSFESYLSYDQPRKKKKKVVKTSGTALGEKGLKKKDSKSTSKNLNSAQKLPKANENKSDKLQPAGAEPTRPRKVPTDVLPALPDIPLPAIQTNYRPLPSLELISSFQPKRKAFSSPQEEEEAGFTGRRMNSKMQVYSGSKCAYLPKMMTLHQQCIRVLKNNIDSIFEVGGVPYSVLEPVLERCTPDQLYRIEECNHVLIEETDQLWKVHCHANKPKGRQAKMAFVNSVAKPPRDVRRRQEKFGTGGAAVPEKVRIKPAPYTTGSSHVPASNSSSSFHSSPEELAYEGPSTSSAHLAPVASSSVSYDPRKPAVKKIAPMMAKTIKAFKNRFSRR
Consider B2, for which the binding result is “binds”.

B3: wild type Elongin A (other)
chain: MAAESALQVVEKLQARLAANPDPKKLLKYLKKLSVLPITVDILVETGVGKTVNSFRKHEQVGNFARDLVAQWKKLVPVERNNEAEDQDFEKSNSRKRPRDVPQQEEEAEGNYQESWQASGSQPYSPEHRQKKHRKLPELERPHKVAHGHERRDERKRCHKVSPPYSSDPESSDYGHVQSPPPSSPHQMYTDLSRSPEMDQEPIVSHPKPGKVHSNTFQDRLGVSHLGEHQGKGAVSQNKPHKSSHKEKRPVDARGDEKSSVMGREKSHKASSKEESRRLLSEDSAKEKLPSSVVKKEKDREGNSLKKKLSPALDVASDNHFKKPKHKDSEKIKSDKNKQSVDSVDSGRGTGDPLPRAKDKVPNNLKAQEGKVRTNSDRKSPGSLPKVEEMDMDDEFEQPTMSFESYLSYDQPRKKKKKVVKTSGTALGEKGLKKKDSKSTSKNLNSAQKLPKANENKSDKLQPAGAEPTRPRKVPTDVLPALPDIPLPAIQTNYRPLPSLELISSFQPKRKAFSSPQEEEEAGFTGRRMNSKMQVYSGSKCAYLPKMMTLHQQCIRVLKNNIDSIFEVGGVPYSVLEPVLERCTPDQLYRIEECNHVLIEETDQLWKVHCHRDFKEERPEEYESWREMYLRLQDAREQRLRLLTNNIRSAHANKPKGRQAKMAFVNSVAKPPRDVRRRQEKFGTGGAAVPEKVRIKPAPYTTGSSHVPASNSSSSFHSSPEELAYEGPSTSSAHLAPVASSSVSYDPRKPAVKKIAPMMAKTIKAFKNRFSRR
B3: the binding result was “binds”.

B4: Elongin A internal deletion mutant Δ586-610 (other)
chain: MAAESALQVVEKLQARLAANPDPKKLLKYLKKLSVLPITVDILVETGVGKTVNSFRKHEQVGNFARDLVAQWKKLVPVERNNEAEDQDFEKSNSRKRPRDVPQQEEEAEGNYQESWQASGSQPYSPEHRQKKHRKLPELERPHKVAHGHERRDERKRCHKVSPPYSSDPESSDYGHVQSPPPSSPHQMYTDLSRSPEMDQEPIVSHPKPGKVHSNTFQDRLGVSHLGEHQGKGAVSQNKPHKSSHKEKRPVDARGDEKSSVMGREKSHKASSKEESRRLLSEDSAKEKLPSSVVKKEKDREGNSLKKKLSPALDVASDNHFKKPKHKDSEKIKSDKNKQSVDSVDSGRGTGDPLPRAKDKVPNNLKAQEGKVRTNSDRKSPGSLPKVEEMDMDDEFEQPTMSFESYLSYDQPRKKKKKVVKTSGTALGEKGLKKKDSKSTSKNLNSAQKLPKANENKSDKLQPAGAEPTRPRKVPTDVLPALPDIPLPAIQTNYRPLPSLELISSFQPKRKAFSSPQEEEEAGFTGRRMNSKMQVYSGSKCAYLPKMMTLHQQCIRVLKNNIDSIFEVGGVPYSVLEPVLERCTPHRDFKEERPEEYESWREMYLRLQDAREQRLRLLTNNIRSAHANKPKGRQAKMAFVNSVAKPPRDVRRRQEKFGTGGAAVPEKVRIKPAPYTTGSSHVPASNSSSSFHSSPEELAYEGPSTSSAHLAPVASSSVSYDPRKPAVKKIAPMMAKTIKAFKNRFSRR
In the case of B4, the binding result was “binds”.

B5: Elongin A internal deletion mutant Δ651-690 (other)
chain: MAAESALQVVEKLQARLAANPDPKKLLKYLKKLSVLPITVDILVETGVGKTVNSFRKHEQVGNFARDLVAQWKKLVPVERNNEAEDQDFEKSNSRKRPRDVPQQEEEAEGNYQESWQASGSQPYSPEHRQKKHRKLPELERPHKVAHGHERRDERKRCHKVSPPYSSDPESSDYGHVQSPPPSSPHQMYTDLSRSPEMDQEPIVSHPKPGKVHSNTFQDRLGVSHLGEHQGKGAVSQNKPHKSSHKEKRPVDARGDEKSSVMGREKSHKASSKEESRRLLSEDSAKEKLPSSVVKKEKDREGNSLKKKLSPALDVASDNHFKKPKHKDSEKIKSDKNKQSVDSVDSGRGTGDPLPRAKDKVPNNLKAQEGKVRTNSDRKSPGSLPKVEEMDMDDEFEQPTMSFESYLSYDQPRKKKKKVVKTSGTALGEKGLKKKDSKSTSKNLNSAQKLPKANENKSDKLQPAGAEPTRPRKVPTDVLPALPDIPLPAIQTNYRPLPSLELISSFQPKRKAFSSPQEEEEAGFTGRRMNSKMQVYSGSKCAYLPKMMTLHQQCIRVLKNNIDSIFEVGGVPYSVLEPVLERCTPDQLYRIEECNHVLIEETDQLWKVHCHRDFKEERPEEYESWREMYLRLQDAREQRLRLLTNNIRSAEKVRIKPAPYTTGSSHVPASNSSSSFHSSPEELAYEGPSTSSAHLAPVASSSVSYDPRKPAVKKIAPMMAKTIKAFKNRFSRR
Consider B5, for which the binding result was “binds”.
